Three proteins from article PMC12316734, “Lipase Activation by Poly(Methyl Methacrylate) in Dispersed Solution: Mechanistic Insights by Fluorescence Spectroscopy” (Applied Biochemistry and Biotechnology, 2025) can be followed below.

Common to all, as to test: fluorogenic hydrolysis assay, Michaelis-Menten fit
Holding throughout (settings): pH 7, 20 °C, no PMMA, 2% DMSO, 500 nM enzyme

Substrate in data set [1]: CCCC(=O)Oc1ccc2c(C)cc(=O)oc2c1
Type of data set: biochemical, Thermomyces lanuginosus. The source says:
fluorogenic hydrolysis assay, Michaelis-Menten fit on Thermomyces lanuginosus lipase (TLL)

Substrate in data set [2]: CCCC(=O)Oc1ccc2c(C)cc(=O)oc2c1
Type of data set: biochemical, Bacillus subtilis. From the text:
fluorogenic hydrolysis assay, Michaelis-Menten fit on Bacillus subtilis lipase A (BSLA WT)

Substrate in data set [3]: CCCC(=O)Oc1ccc2c(C)cc(=O)oc2c1
Type of data set: biochemical, Moesziomyces antarcticus. From the text:
fluorogenic hydrolysis assay, Michaelis-Menten fit on Candida antarctica lipase B (CalB)

B1: Thermomyces lanuginosus lipase (TLL) (Thermomyces lanuginosus) (protein)
chain: EVSQDLFNQFNLFAQYSAAAYCGKNNDAPAGTNITCTGNACPEVEKADATFLYSFEDSGVGDVTGFLALDNTNKLIVLSFRGSRSIENWIGNLNFDLKEINDICSGCRGHDGFTSSWRSVADTLRQKVEDAVREHPDYRVVFTGHSLGGALATVAGADLRGNGYDIDVFSYGAPRVGNRAFAEFLTVQTGGTLYRITHTNDIVPRLPPREFGYSHSSPEYWIKSGTLVPVTRNDIVKIEGIDATGGNNQPNIPDIPAHLWYFGLIGTCL
notes: commercial lipase (gift of ASA Spezialenzyme), desalted; predominantly dimer in FCS
The term Km denotes the substrate concentration at which the rate is half of its maximum. As usually defined, the Vmax is the top rate of the reaction or transport when substrate is in excess. For B1, in data set [1], the Michaelis-Menten constant (Km) was 20.8 ± 1.67 µM, the Vmax was found to be 4.16 µM/min and the Vmax/Km is 0.2 min⁻¹.

B2: Bacillus subtilis lipase A (BSLA WT) (Bacillus subtilis subsp. subtilis str. 168) (protein)
chain: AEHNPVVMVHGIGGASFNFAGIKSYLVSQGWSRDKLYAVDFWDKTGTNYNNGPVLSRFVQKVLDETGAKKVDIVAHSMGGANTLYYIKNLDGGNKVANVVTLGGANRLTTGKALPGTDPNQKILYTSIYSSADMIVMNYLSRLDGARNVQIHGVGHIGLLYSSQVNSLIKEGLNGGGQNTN
Regarding B2, in data set [2], the Michaelis-Menten constant (Km) came to 39.2 ± 3.61 µM, the Vmax is 97.7 µM/min and the Vmax/Km was 2.49 min⁻¹.

B3: Candida antarctica lipase B (CalB) (Moesziomyces antarcticus) (protein)
chain: LPSGSDPAFSQPKSVLDAGLTCQGASPSSVSKPILLVPGTGTTGPQSFDSNWIPLSTQLGYTPCWISPPPFMLNDTQVNTEYMVNAITALYAGSGNNKLPVLTWSQGGLVAQWGLTFFPSIRSKVDRLMAFAPDYKGTVLAGPLDALAVSAPSVWQQTTGSALTTALRNAGGLTQIVPTTNLYSATDEIVQPQVSNSPLDSSYLFNGKNVQAQAVCGPLFVIDHAGSLTSQFSYVVGRSALRSTTGQARSADYGITDCNPLPANDLTPEQKVAAAALLAPAAAAIVAGPKQNCEPDLMPYARPFAVGKRTCSGIVTP
notes: commercial lipase B (Strem Chemicals), free enzyme in solution
On to B3, for which, in data set [3], the Km is on record as 26.6 ± 1.77 µM, the Vmax was 5.43 µM/min and the Vmax/Km turned out to be 0.2 min⁻¹.
